First the molecules themselves.
B1: Phosphate system positive regulatory protein PHO4 (Saccharomyces cerevisiae), P07270 (parent)
chain: MGRTTSEGIHGFVDDLEPKSSILDKVGDFITVNTKRHDGREDFNEQNDELNSQENHNSSENGNENENEQDSLALDDLDRAFELVEGMDMDWMMPSHAHHSPATTATIKPRLLYSPLIHTQSAVPVTISPNLVATATSTTSANKVTKNKSNSSPYLNKRRGKPGPDSATSLFELPDSVIPTPKPKPKPKQYPKVILPSNSTRRVSPVTAKTSSSAEGVVVASESPVIAPHGSSHSRSLSKRRSSGALVDDDKRESHKHAEQARRNRLAVALHELASLIPAEWKQQNVSAAPSKATTVEAACRYIRHLQQNVST
partner: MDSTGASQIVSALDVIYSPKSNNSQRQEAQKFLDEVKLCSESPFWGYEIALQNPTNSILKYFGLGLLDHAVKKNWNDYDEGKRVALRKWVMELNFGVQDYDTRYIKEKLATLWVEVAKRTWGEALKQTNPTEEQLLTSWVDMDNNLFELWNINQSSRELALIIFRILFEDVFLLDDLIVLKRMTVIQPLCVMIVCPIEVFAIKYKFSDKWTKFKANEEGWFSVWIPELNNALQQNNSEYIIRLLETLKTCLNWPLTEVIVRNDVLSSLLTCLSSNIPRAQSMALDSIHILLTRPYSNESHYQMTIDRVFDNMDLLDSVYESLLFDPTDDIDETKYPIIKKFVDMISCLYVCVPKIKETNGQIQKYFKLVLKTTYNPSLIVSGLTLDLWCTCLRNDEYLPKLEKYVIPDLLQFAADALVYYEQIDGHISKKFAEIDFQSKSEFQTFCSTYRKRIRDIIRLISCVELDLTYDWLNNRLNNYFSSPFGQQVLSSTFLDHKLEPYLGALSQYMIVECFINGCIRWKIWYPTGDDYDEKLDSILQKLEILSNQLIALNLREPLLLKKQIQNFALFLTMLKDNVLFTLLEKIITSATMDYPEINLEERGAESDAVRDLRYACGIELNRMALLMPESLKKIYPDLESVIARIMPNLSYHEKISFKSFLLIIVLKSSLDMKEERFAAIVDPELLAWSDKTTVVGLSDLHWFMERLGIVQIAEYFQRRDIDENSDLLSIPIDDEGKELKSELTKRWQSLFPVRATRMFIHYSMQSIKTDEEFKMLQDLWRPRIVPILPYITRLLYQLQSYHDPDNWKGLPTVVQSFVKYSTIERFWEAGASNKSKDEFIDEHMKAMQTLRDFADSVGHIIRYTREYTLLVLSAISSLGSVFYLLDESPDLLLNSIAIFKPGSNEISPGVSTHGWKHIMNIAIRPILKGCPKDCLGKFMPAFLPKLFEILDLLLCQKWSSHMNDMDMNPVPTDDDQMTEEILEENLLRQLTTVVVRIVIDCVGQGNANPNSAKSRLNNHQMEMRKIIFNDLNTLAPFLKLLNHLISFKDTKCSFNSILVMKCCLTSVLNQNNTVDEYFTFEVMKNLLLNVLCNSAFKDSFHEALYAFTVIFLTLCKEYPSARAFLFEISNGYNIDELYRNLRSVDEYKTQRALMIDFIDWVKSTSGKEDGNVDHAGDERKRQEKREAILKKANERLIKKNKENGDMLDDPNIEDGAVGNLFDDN

In this test the parent is B1. The note with it: with msn5_yeast MSN5, P52918.
Consider S100A;S114A;S128A;S152A;S223A, for which the “effect of a mutation on the interaction” value is on record as “disrupting interaction”.
